The values below come from paper PMC7311433, “Two novel fish paralogs provide insights into the Rid family of imine deaminases active in pre-empting enamine/imine metabolic damage” (Scientific Reports, 2020).

In data set [1] the target is Salmo salar RidA-1 (Salmo salar). Nature of the data set: native MS; ESI mass spectra of 0.5 mg/mL protein in 10 mM ammonium formate; SsRidA-2 also after ultrafiltration on 30 kDa-cutoff membranes (retentate).
For data set [2] the target is unchanged. Nature of the data set: crystal structure; sitting drop at 20 °C, protein 7.5 mg/mL in 154 mM NaCl; SsRidA-1 from 0.2 M NaCl, 0.1 M sodium acetate pH 5.0, 20% PEG 6000; SsRidA-2 from 0.1 M ammonium sulfate, 0.1 M sodium acetate, 25% PEG 4000; data at 100 K.
The target is the same in data set [3]. Briefly: SEC-MALS; 200 uL of 1 mg/mL protein on Superdex 75 10/300 GL in physiological saline (0.9% w/v NaCl), 0.5 mL/min, mobile phase pH 5.8; MALS and DLS detection.
Data set [4] addresses Salmo salar RidA-2 (Salmo salar). Briefly: native MS; ESI mass spectra of 0.5 mg/mL protein in 10 mM ammonium formate; SsRidA-2 also after ultrafiltration on 30 kDa-cutoff membranes (retentate).
Data set [5] shares this target. Nature of the data set: crystal structure; sitting drop at 20 °C, protein 7.5 mg/mL in 154 mM NaCl; SsRidA-1 from 0.2 M NaCl, 0.1 M sodium acetate pH 5.0, 20% PEG 6000; SsRidA-2 from 0.1 M ammonium sulfate, 0.1 M sodium acetate, 25% PEG 4000; data at 100 K.
The target is the same in data set [6]. Briefly: SEC-MALS; 200 uL of 1 mg/mL protein on Superdex 75 10/300 GL in physiological saline (0.9% w/v NaCl), 0.5 mL/min, mobile phase pH 5.8; MALS and DLS detection.
Data set [7] deals with the molecule itself. The data set is described as above.

As for Salmo salar RidA-1 (enzyme), the stoichiometry N in data set [1], in data set [2] and in data set [3] was 3 in each case.
Take Salmo salar RidA-2 (enzyme): the stoichiometry N in data set [4], in data set [5] and in data set [6] was 3 in each case.

B1: goat RidA (UK114) (enzyme, goat (Capra hircus))
chain: SSLVRRIISTAKAPAAIGPYSQAVLVDRTIYISGQLGMDPASGQLVPGGVVEEAKQALTNIGEILKAAGCDFTNVVKATVLLADINDFSAVNDVYKQYFQSSFPARAAYQVAALPKGGRVEIEAIAVQGPLTTASL
notes: also called ChRidA; goat UK114
B1: the “stoichiometry N” value in data set [7] came to 3.
